Blank lines part the entries; values can stand above or below the molecule they belong to.
Tests used:
Myostatin (MSTN) [1] = target: Myostatin (MSTN) (UniProt O14793)
[2] = target: Pro23-98 (MBP removed by factor Xa) (pig) (UniProt O18831); assay: non-reducing SDS-PAGE; samples boiled in SDS loading buffer without beta-mercaptoethanol (unreduced) or with it (reduced); 15% gel, Coomassie blue; can show only disulfide-linked dimers
Myostatin (MSTN) [3] = target: Myostatin (MSTN) (UniProt O14793); remark: listed apart in the source
Myostatin (MSTN) [4] = target: T1, Myostatin (MSTN) (UniProt O14793 267-375); assay: cell-based or functional assay
T1 sequence (looked up): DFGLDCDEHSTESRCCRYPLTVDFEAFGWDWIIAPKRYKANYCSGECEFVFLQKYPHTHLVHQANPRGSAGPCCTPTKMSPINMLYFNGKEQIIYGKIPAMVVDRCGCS

[5] = target: the molecule itself; assay: non-reducing SDS-PAGE; samples boiled in SDS loading buffer without beta-mercaptoethanol (unreduced) or with it (reduced); 15% gel, Coomassie blue; can show only disulfide-linked dimers

Molecule: MBP-fused truncated pig MSTNpro containing residues 42-175 (from UniProt O18831 42-175) (domain or fragment)
IC50 to suppress 1 nM MSTN activity, pGL3-(CAGA)12-luciferase reporter assay in HEK293 cells (Myostatin (MSTN) [1]): 2.7 nM

Molecule: Pro23-98 (MBP removed by factor Xa) (from UniProt O18831 23-98) (domain or fragment)
stoichiometry N [2]: 2

Molecule: Pro42-175 (MBP removed by factor Xa) (from UniProt O18831 42-175) (domain or fragment)
IC50 to suppress 1 nM MSTN, (CAGA)12-luciferase reporter gene assay, after removal of MBP (Myostatin (MSTN) [3]): 44.9 nM

B1: MBP-fused truncated pig MSTNpro containing residues 42-98 (domain or fragment, UniProt O18831 42-98, looked up)
chain: CMWRQNTKSSRLEAIKIQILSKLRLETAPNISKDAIRQLLPKAPPLRELIDQYDVQR
IC50 to suppress 1 nM MSTN activity, pGL3-(CAGA)12-luciferase reporter assay in HEK293 cells (Myostatin (MSTN) [4]): 24.1 nM

B2: Pro42-98 (MBP removed by factor Xa) (domain or fragment, pig, UniProt O18831 42-98, looked up)
chain: B1 chain
notes: Pig myostatin propeptide (MSTNpro), residues 42-98; Derived from m4; also called MBP-removed MSTNpro domain containing residues 42-98; source: E. coli K12TB1; MBP-Pro42-98 digested with factor Xa, soluble fraction of the digest / Superdex 75 fraction f16; not shown: MBP, N-terminal, cleaved
stoichiometry N [5]: 2

Second part, the molecule after the results:

IC50 to suppress 1 nM MSTN activity, pGL3-(CAGA)12-luciferase reporter assay in HEK293 cells (Myostatin (MSTN) [1]): 2.8 nM
Molecule: Full sequence MBP-fused pig MSTNpro (metalloproteinase-resistant mutant) (domain or fragment)

IC50 to suppress 1 nM MSTN activity, pGL3-(CAGA)12-luciferase reporter assay in HEK293 cells (Myostatin (MSTN) [1]): 17.7 nM
Molecule: MBP-fused truncated pig MSTNpro containing residues 42-115 (from UniProt O18831 42-115) (domain or fragment)

IC50 to suppress 1 nM MSTN activity, pGL3-(CAGA)12-luciferase reporter assay in HEK293 cells (Myostatin (MSTN) [1]): 3.3 nM
Molecule: MBP-fused truncated pig MSTNpro containing residues 42-218 (from UniProt O18831 42-218) (domain or fragment)
